The source of these data is patent US20220098319A1 (SHANGHAI PHARMAEXPLORER, published 2022).

Assay [1] addresses T1, His-tagged CD73 extracellular domain protein (hCD73 ECD-His) (human, UniProt P21589 27-547).
T1 construct: Expressed in CHO cells from pTT5-hCD73 ECD-His6, purified on nickel column; also called hCD73 ECD-His6; human CD73 ECD
T1 sequence: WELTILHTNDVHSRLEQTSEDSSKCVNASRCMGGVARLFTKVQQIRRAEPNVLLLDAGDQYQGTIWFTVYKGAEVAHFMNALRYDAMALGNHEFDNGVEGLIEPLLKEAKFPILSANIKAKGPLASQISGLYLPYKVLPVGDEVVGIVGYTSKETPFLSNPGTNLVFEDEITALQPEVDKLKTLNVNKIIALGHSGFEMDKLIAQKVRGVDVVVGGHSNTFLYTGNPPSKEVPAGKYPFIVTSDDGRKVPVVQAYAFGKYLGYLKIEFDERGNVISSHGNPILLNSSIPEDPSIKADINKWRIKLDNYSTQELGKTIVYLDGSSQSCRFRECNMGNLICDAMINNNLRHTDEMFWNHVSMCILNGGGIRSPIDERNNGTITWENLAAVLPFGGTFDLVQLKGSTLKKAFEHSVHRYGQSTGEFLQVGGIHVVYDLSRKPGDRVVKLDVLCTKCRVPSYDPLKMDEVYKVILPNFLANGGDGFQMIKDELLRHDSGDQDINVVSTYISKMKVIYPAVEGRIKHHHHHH
Kind of assay: affinity to hCD73 ECD-His (headed SPR; Octet assumed as in 5.5). (In general: In BLI a coated tip is dipped into the sample, and binding shifts an interference pattern.)

The target of assay [2] is T2, human CD73 (full length, on transfected CHOK1 cells) (human, UniProt P21589 27-549).
T2 sequence (looked up): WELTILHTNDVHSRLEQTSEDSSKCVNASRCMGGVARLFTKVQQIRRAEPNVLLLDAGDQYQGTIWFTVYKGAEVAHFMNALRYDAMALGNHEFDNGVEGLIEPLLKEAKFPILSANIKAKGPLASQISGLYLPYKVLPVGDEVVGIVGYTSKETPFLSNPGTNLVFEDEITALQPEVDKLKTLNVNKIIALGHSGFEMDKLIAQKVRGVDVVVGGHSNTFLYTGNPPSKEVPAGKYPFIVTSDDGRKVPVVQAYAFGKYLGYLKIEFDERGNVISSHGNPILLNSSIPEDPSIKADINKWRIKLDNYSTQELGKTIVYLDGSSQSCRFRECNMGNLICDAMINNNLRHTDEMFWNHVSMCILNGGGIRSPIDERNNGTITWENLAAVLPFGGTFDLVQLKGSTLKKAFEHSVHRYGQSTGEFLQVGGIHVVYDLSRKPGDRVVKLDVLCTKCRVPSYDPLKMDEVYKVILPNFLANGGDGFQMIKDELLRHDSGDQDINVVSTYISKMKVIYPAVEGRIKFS
The assay can be described thus: cell-based or functional assay.

The target of assay [3] is T1, His-tagged CD73 extracellular domain …. Kind of assay: Octet BLI, antibody on AHC sensor, antigen 50-200 nM, 1:1 fit. From the text: Octet Red 96 was selected as the test instrument, and AHC biosensor was selected as the test sensor in this experiment. Anti-human IgG Fc antibody has been immobilized on the AHC sensor, which can be used to directly capture the 15 antibodies in this experiment. Then the sensor was immersed in the analysis sample (antigen). There were five steps in this experiment: 1, Baseline (120 s) 2, Loading (capture antibody) (300 s) 3, Baseline (120 s) 4, Association (binding antigen) (180 s) 5, Dissociation (antigen dissociation) (1200 s). After the test was completed, the regeneration buffer (Glycine PH1.5) and the neutralization buffer (1*PBS buffer) were alternately immersed for 5 seconds, and the sensor was regenerated by a total of five cycles. The maximum number of sensor regeneration times is 10. The running buffer in this experiment is the sample diluent (1*PBS buffer containing 0.02% Tween20 and 0.1% BSA), that is, the buffer used in the Baseline step, the Dissociation step, and the blank analyte sample. Four sensors are used at one running in this experiment.
Sample treatment: all the antibodies were diluted to the working concentration of 10 ug/ml with sample diluent (1*PBS buffer containing 0.02% Tween20 and 0.1% BSA), and the analyte samples (antigens) were diluted to three working concentrations: 200 nM, 100 nM and 50 nM.
For data analysis, Octet Data Analysis (version 7.0) was used to calculate the response signal value (the signal of the coupled analyte sample minus the signal of the blank analyte sample), and a 1:1 binding model was used to fit the data.

Assay [4] concerns the target T3, murine CD73 (on transfected CHOK1 cells) (mouse, UniProt Q61503 29-551).
T3 construct: whole, on cells; also called CHOK1-mCD73; mCD73
T3 sequence (looked up): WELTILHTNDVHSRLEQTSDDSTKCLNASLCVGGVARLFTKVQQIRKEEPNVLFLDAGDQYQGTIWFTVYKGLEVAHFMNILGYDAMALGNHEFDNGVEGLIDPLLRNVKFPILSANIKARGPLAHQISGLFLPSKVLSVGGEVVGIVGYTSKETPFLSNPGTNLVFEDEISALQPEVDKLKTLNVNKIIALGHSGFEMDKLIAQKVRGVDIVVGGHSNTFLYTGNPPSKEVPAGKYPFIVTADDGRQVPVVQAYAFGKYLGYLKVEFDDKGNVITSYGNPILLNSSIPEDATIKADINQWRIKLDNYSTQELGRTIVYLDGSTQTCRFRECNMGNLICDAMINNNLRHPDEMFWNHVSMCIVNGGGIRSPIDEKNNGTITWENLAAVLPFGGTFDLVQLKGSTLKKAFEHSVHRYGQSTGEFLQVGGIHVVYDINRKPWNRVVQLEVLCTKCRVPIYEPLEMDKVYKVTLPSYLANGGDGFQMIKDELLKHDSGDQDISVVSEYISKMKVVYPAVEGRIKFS
Kind of assay: FACS on CHOK1-mCD73 cells.

Assay [5] deals with T4, cynomolgus monkey CD73 (on transfected CHOK1 cells) (cynomolgus monkey, UniProt A0A2K5V5U7 27-549).
T4 construct: whole, on cells; also called CHOK1-cCD73; CHOK1-CCD73
T4 sequence: T2 sequence (looked up) with M199T, T350A, V466I
The assay can be described thus: FACS on CHOK1-cCD73 cells.

The target in assay [6] is T2, human CD73 (full length, on transfected …). Kind of assay: FACS on CHOK1-hCD73 cells.

Where a chain is given by its changes, count along the chain named.

B1: mab030xhIgG1TM (clone 42A5A7), mouse-human chimeric anti-CD73 antibody (antibody, V domains shown)
VH: DIQLQESGPGLVKPSQSLSLTCSVTGYSITSRYYWNWIRQFPGNKLEWMGYITYDDNNNYNPSLKNRISITRDTSKNQFFLKLNSVTPEDTATYYCARGGWDPFLYWGQGTLVTVSA
VL: DIQMTQSPASLSASVGETVTITCRASDNIYSYLAWYQQKQGKSLQLLVDSAKNLGEGVPSRFSGSGSGTQFYLKINSLQPEDFGVYYCQHYYGTPFTFGGGTKLELK
notes: also called mAb030 chimeric antibody
By Kd is commonly meant the constant that tells how readily two partners part at equilibrium. Usually koff stands for the first-order rate constant of dissociation. Broadly, the kon is a measure of how fast the partners come together. The term EC50 denotes the concentration giving half of the maximal effect. As to B1, in assay [1], the affinity, expressed as Kd, was 0.0316 nM; the off-rate constant (koff) came to 2.27e-05 s⁻¹; the on-rate constant (kon) turned out to be 719000 M⁻¹ s⁻¹. In assay [2], the “Inhibition assay of enzyme activity, IC50” value came out at 0.1 nM and the “Inhibition assay of enzyme activity, MAX % inhibition” value came to 67.4%. In assay [3], this molecule showed a Kd of 0.0385 nM, a koff of 1.16e-05 s⁻¹ and a kon of 302000 M⁻¹ s⁻¹. Besides, in assay [4], the binding result is “no binding”. For the same molecule, in assay [5], a half-maximal response (EC50) required 0.8 nM and the “MAX MFI fold” value was determined as 138 fold. Besides, in assay [6], it took 1.5 nM to reach a half-maximal effect (EC50) and the “MAX MFI fold” value is 114 fold.

B2: mab065xhIgG1TM (clone 125A4E10), mouse-human chimeric anti-CD73 antibody (antibody, V domains shown)
VH: EVQLQQSGPELVKPGASVKISCKASGYTFTDYYMNWVKQSHGKSLEWIGNINPNNGDTNYNQKFKGKATLTVDKSSSTASMELRSLTSEDSAVYYCANSGYYYFDYWGQGTTLTVSS
VL: DIVMTQSPSSLTVTAGEKVTMSCKSSQSLLNSGNQKNYLTWYQQKPGQPPKVLIYWASTRESGVPDRFTGSGSGTDFTLTISSVQAEDLAVYYCQNDYSYPPTFGGGTNLEIK
notes: also called mAb065 chimeric antibody
Turning to B2, in assay [2], the “Inhibition assay of enzyme activity, IC50” value was determined as 0.1 nM and the “Inhibition assay of enzyme activity, MAX % inhibition” value came out at 54.7%. In assay [3], this molecule had a Kd of 0.112 nM, a koff of 4.86e-05 s⁻¹ and an on-rate constant (kon) of 434000 M⁻¹ s⁻¹. The binding result in assay [4] was “no binding”. For the same molecule, in assay [5], the 50% effective concentration (EC50) was 3.6 nM and the “MAX MFI fold” value worked out at 173 fold. Moreover, in assay [6], the 50% effective concentration (EC50) was found to be 1.2 nM and the “MAX MFI fold” value was 160 fold.

B3: Hu030-2, humanized anti-CD73 antibody (Hu030VH g1 / Hu030VL g0) (antibody, V domains shown)
VH: QVQLQESGPGLVKPSETLSLTCTVSGYSITSRYYWNWIRQPPGKGLEWIGYITYDDNNNYNPSLKNRVTISRDTSKNQFSLKLSSVTAADTAVYYCARGGWDPFLYWGQGTLVTVSS
VL: DIQMTQSPSSLSASVGDRVTITCRASDNIYSYLAWYQQKPGKAPKLLIYSAKNLGEGVPSRFSGSGSGTDFTLTISSLQPEDFATYYCQHYYGTPFTFGGGTKVEIK
notes: also called antibody 11
In the case of B3, in assay [1], binding was put at a Kd of 0.0208 nM, the off-rate (koff) was 1.55e-05 s⁻¹ and the kon was 746000 M⁻¹ s⁻¹.
